Assay results reported in patent US20090092595A1, “Suppression of sPLA2-integrin binding for treating an inflammatory condition” (REGENTS OF THE UNIVERSITY OF CALIFORNIA, priority 2007, published 2009).

Legend:
α4-K562 cells = assay: Proliferation of α4-K562 cells (MTS assay); format: cell-based, human; conditions: serum-starved 48 h, stimulated 48 h
Experimental: Cells were serum-starved for 48 h and stimulated with sPLA2-IIA for 48 h. Cell proliferation was determined by MTS assays. Data is shown as means+/−SEM of triplicate experiments. α4- and αvβ3-K562 cells proliferated faster than mock-K562 cells. […] Serum-starved cells were stimulated with wt or mutant sPLA2-IIA (0.5 μg/ml) for 48 h. Data is shown as means+/−SEM of triplicate experiments. α4-K562 and αvβ3-K562 cells grew faster than mock K562 cells with wt and H47Q sPLA2-IIA (*P<0.05 by t-test).
Cell proliferation and MAP kinase activation K562 cells and human monocytic lymphoma U937 cells were maintained in RPM11640 medium supplemented with 10% FCS. Cells were plated in 96-well plates (1×10^4 cells/well), and serum-starved for 48 h at 37° C. in 5% CO2 atmosphere. Cells were then treated with or without sPLA2-IIA in medium without serum for 48 h. Cell proliferation was determined by MTS assays using the Aqueous Cell Proliferation Assay Kit (Promega). For MAP kinase activation assays, cells were serum starved in RPMI1640 medium supplemented with 0.4% FCS for 24 h, and stimulated with Wt and mutant sPLA2-IIA (0.5 μg/ml) for 10 min at 37° C. ERK1/2 activation was measured as described (Mori, S. et al., J Biol Chem, in press (2008)).

soluble integrin αvβ3 = target: T1, soluble integrin αvβ3 (Homo sapiens, UniProt P05106+P06756); assay: Binding of soluble αvβ3 to immobilized sPLA2-IIA (ELISA-type assay); conditions: immobilized protein, 20 μg/ml coating
T1 construct: Recombinant soluble αvβ3 was synthesized as previously described; made in house
Experimental: Binding of soluble αvβ3 to immobilized sPLA2-IIA sPLA2-IIA was immobilized to wells of 96 well microtiter plates and the remaining protein-binding sites were blocked by BSA as described (Mori, S. et al., J Biol Chem, 283:18066-18075 (2008)). Soluble recombinant αvβ3 at 5 μg/ml in Hepes-Tyrodes buffer supplemented with 1 mM MnCl2 was added to the well and incubated for 2 h. Bound αvβ3 was measured using anti-integrin β3 (mAb AV-10) followed by HRP-conjugated goat anti-mouse IgG and peroxidase substrates.

α4β1 binding to VCAM-1 = target: T2, α4β1 binding to VCAM-1 (Homo sapiens, UniProt P05556+P13612); assay: Adhesion of U937 cells to VCAM-1 in the presence of sPLA2-IIA; format: cell-based; conditions: increasing concentrations of sPLA2-IIA, 1 h, 37° C.
T2 construct: integrin α4β1, a major integrin in U937 cells; endogenous in cells; host or cells: U937
Experimental: FIG. 5. sPLA2-IIA binding to integrin α4β1. a) Cells expressing recombinant α4β1 adhered to wt sPLA2-IIA better than cells expressing other recombinant integrins. We used transfected K562 cells clonally express different human integrins for adhesion assays. Low background adhesion to BSA was subtracted. […] Wells of 96-well microtiter plate were coated with VCAM-1 and FN-GST, and incubated with U937 cells (1×10^4 cells/plate) in the presence of the increasing concentrations of sPLA2-IIA for 1 h at 37° C. Adherent cells were quantified using endogenous phosphatase after gently rinsing the well to remove unbound cells. Data is shown as means+/−SEM of triplicate experiments. *P=0.0101 and **P<0.0001 by t-test. c) Amino acid sequence in the α4 subunit that is critical for VCAM-1 and CS-1 binding is also critical for sPLA2-IIA binding. CHO cells that clonally express wt or mutant α4 (Irie, A. et al., Embo J, 14(22): 5550-5556 (1995)) were used for adhesion assays. Data is shown as means+/−SEM of triplicate experiments. Similar results were obtained using K562 cells expressing α4 mutants (not shown).
Other methods We performed docking simulation of interaction between sPLA2-IIA and integrin αvβ3 using the AutoDock3 as previously described (Mori, S. et al., J Biol Chem, in press (2008)). […]

T2 sequence (P13612 34-1032): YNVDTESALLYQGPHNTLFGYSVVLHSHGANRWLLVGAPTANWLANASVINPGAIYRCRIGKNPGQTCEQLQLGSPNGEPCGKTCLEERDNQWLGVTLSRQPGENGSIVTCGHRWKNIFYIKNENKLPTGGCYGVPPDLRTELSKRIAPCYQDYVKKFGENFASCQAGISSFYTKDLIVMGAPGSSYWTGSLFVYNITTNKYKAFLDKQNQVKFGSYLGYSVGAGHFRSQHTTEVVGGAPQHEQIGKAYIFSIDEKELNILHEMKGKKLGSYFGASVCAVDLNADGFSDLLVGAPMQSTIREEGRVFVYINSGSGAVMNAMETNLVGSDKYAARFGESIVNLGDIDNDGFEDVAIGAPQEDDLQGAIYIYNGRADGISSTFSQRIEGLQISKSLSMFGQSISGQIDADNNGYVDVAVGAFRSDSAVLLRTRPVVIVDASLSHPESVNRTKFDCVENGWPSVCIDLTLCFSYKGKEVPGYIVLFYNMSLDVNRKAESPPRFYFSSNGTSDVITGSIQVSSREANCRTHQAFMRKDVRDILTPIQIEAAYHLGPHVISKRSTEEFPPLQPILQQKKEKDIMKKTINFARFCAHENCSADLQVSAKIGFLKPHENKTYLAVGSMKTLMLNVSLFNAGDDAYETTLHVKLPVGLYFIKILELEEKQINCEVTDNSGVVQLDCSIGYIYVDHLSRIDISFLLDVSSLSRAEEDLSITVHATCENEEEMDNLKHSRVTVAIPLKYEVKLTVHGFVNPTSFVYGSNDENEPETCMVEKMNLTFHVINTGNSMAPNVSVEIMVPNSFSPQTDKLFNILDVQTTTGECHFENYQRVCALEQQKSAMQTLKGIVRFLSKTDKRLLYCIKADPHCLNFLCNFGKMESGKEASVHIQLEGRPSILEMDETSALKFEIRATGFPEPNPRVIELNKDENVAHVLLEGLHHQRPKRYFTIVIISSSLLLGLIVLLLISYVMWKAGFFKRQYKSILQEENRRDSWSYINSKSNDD
T2 sequence (P05556 21-798): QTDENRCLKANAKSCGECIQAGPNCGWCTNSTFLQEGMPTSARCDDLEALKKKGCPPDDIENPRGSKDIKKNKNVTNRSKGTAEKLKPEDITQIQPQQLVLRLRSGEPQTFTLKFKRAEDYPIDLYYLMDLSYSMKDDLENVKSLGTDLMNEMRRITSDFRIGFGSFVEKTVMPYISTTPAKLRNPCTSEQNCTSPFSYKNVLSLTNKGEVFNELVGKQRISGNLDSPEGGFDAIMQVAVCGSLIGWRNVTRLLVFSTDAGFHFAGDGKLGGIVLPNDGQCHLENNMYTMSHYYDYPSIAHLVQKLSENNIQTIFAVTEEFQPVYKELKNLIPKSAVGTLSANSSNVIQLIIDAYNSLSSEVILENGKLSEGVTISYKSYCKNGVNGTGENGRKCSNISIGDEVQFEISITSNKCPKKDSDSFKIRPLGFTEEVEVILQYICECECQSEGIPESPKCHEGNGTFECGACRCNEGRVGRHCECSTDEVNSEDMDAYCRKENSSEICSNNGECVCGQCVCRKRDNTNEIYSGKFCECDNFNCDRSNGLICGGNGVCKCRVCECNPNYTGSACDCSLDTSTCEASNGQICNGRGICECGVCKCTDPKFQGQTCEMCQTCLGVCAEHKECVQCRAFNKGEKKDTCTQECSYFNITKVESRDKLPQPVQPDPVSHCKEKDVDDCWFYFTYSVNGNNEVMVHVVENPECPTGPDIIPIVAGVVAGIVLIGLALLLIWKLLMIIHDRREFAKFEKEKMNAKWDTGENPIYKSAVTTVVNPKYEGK
T1 sequence (P06756 31-992 limits assumed): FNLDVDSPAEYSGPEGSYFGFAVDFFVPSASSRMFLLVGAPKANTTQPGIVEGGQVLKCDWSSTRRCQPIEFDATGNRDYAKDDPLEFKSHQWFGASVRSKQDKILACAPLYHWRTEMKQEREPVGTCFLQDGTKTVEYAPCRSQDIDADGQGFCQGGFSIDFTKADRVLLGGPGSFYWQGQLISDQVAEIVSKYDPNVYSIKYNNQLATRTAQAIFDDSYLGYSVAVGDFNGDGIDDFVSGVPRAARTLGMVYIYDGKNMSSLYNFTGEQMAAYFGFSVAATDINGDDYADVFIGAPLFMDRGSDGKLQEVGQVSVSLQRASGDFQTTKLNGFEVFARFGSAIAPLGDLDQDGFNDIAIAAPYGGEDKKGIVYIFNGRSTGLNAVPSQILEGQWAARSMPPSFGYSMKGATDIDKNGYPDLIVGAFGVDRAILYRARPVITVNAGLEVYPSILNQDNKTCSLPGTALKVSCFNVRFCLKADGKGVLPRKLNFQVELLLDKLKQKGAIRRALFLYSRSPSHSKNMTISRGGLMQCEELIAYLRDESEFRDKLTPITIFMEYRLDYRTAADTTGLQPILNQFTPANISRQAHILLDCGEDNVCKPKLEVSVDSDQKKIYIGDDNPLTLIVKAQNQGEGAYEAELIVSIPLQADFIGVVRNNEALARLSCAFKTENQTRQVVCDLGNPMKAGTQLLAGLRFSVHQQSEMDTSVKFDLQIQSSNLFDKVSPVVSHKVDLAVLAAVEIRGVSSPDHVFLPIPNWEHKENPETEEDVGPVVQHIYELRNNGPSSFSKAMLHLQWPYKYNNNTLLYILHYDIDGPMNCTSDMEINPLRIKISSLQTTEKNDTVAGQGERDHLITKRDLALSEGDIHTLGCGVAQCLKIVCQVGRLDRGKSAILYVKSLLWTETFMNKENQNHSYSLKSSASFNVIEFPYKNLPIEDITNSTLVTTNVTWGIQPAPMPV
T1 sequence (P05106 27-718 limits assumed): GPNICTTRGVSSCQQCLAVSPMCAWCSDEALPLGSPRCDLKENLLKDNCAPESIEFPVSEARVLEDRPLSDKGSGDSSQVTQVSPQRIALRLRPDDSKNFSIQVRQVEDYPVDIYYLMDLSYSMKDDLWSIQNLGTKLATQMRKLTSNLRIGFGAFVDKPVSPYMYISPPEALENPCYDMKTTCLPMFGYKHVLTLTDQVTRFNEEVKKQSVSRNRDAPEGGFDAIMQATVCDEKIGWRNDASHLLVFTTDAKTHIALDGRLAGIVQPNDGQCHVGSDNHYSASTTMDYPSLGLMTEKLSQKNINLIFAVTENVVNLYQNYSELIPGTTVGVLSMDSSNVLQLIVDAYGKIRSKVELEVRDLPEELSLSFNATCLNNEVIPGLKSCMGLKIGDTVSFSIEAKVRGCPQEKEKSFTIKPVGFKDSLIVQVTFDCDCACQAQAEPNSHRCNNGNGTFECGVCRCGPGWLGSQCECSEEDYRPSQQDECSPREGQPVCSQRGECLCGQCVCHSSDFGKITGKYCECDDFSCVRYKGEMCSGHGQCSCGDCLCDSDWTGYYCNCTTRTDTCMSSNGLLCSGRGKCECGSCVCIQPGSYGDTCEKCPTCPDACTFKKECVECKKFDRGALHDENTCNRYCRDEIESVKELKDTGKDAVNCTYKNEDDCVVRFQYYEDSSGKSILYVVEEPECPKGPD

B1: wt sPLA2-IIA: Secretory phospholipase A2 group IIA, wild type, recombinant from bacteria BL21, refolded (protein)
chain: NLVNFHRMIKLTTGKEAALSYGFYGCHCGVGGRGSPKDATDRCCVTHDCCYKRLEKRGCGTKFLSYKFSNSGSRITCAKQDSCRSQLCECDKAAATCFARNKTTYNKKYQYYSNKHCRGSTPRC
modifications: left off: small tags and cut ends
For B1, the “proliferation of α4-K562 cells” value (α4-K562 cells) was “induced proliferation”, the “binding to soluble αvβ3” value (soluble integrin αvβ3) was “bound” and the “adhesion of U937 cells to VCAM-1” value (α4β1 binding to VCAM-1) was “suppressed adhesion”.
